“Also recorded” adds a separate entry of the source.

Here are results for 1 molecule from patent US8324344B2, “Membrane transduction peptides and methods of delivering material to a target cell” (STC.UNM, priority 2008, dated 2012).

Assay [1] relates to HT-1080 cells. The assay is described as follows: Internalization of offered recombinant proteins in HT-1080 cells, immunoblotting of cytosolic and nuclear fractions. The following applies: 1 μM. It is filed as cell-based, human. The protocol:
HT-1080 cells were grown in six-well plates under standard conditions. At confluence, the cells were treated with fresh medium containing either wild-type TFPI-2, TFPI-2^1-188, R24Q KD1, R24K KD1, or R24K KD1-CT as previously described (Kempaiah and Kisiel, Apoptosis, 2008;13:702-715). Briefly, duplicate wells were treated with purified proteins (1 μM final concentration) and incubated at either 37° C. or 4° C. for different time periods. Two wells were also treated with phosphate-buffered saline (PBS) at each temperature to serve as a control. At selected time points, the media was removed and the cells were rinsed once with PBS. The cells were then washed with 1 M NaCl/PBS for 30 minutes with gentle shaking to dissociate cell surface-bound proteins (Iino et al., Arterioscler. Thromb. Vasc. Biol., 1998;18:40-46). Finally, the cells were rinsed once with PBS, trypsinized and harvested for the preparation of cell lysates and cell fractions.
To prepare total cell lysates, 1-3×10^6 cells were lysed by sonication in 500 μl of lysis buffer containing of 125 mM Tris-HCl (pH 6.8), 2% SDS, 10% glycerol, 50 mM sodium phosphate, 1 mM phenylmethanesulphonylfluoride (PMSF) and protease inhibitor cocktail. The lysate was kept on ice for about 10 minutes, centrifuged for 15 minutes at 10,000×g at 4° C., and the supernatant recovered. To prepare nuclear and cytosolic fractions, approximately 2×10^6 cells were harvested and washed twice with cold PBS by centrifugation at 600×g in a Beckman J-6M/E centrifuge for seven minutes at 4° C. Five volumes of ice cold cytosolic buffer (10 mM Hepes pH 7.4, 0.33 M sucrose, 1 mM MgCl2, 0.1% Triton X-100 and protease inhibitor cocktail) was added to the cells and incubated on ice for 15 minutes. The cytosolic fraction was collected by centrifugation at 900×g for five minutes at 4° C. The resulting undissolved pellet was washed twice with cytosolic buffer followed by centrifugation at 900×g for five minutes at 4° C. Finally, the resulting pellet was resuspended in five volumes of ice cold buffer containing 0.45 M NaCl in 10 mM Hepes (pH 7.4) and protease inhibitor cocktail. The suspension was incubated on ice for an additional 15 minutes to dissolve the nucleus, and subsequently centrifuged at 18,000×g for five minutes at 4° C. The resulting supernatant was collected as the nuclear extract. All samples were boiled for three minutes in the presence of 5% SDS and stored at −20° C. until use.
The cell lysate, cytosol and nuclear fractions were subjected to SDS-PAGE using 4-20% polyacrylamide gradient gels. […] The membranes were then probed with specific antibodies dissolved in fresh blocking buffer. Immunoreactive proteins were identified using HRP-conjugated secondary antibodies and a chemiluminescent reagent system essentially as described (Kempaiah et al., Mol. Cancer, 2007;6:20). The integrity of the cytosolic and nuclear fractions was verified using anti-α-tubulin and anti-histone-H1 antibodies, respectively (Guo et al., Am. J Physiol. Cell Physiol., 2007;292:2095-2102).
The relative intensity of the Western blot bands were quantified using QUANTISCAN software (Biosoft, Cambridge, U.K.). The intensities are reported in arbitrary units (A.U.) obtained by subtracting the background value from the corresponding band's mean value.
For orientation: Immunoblotting shows a protein as a band on a membrane.

In a further assay the test system is importin-α. Nature of the assay: Co-immunoprecipitation assay of TFPI-2 with importin-α from HT-1080 cell lysates. The class given is binding, human. The conditions noted are these: lysates of TFPI-2-treated (1 μM) HT-1080 cells or HT-1080 cells overexpressing TFPI-2; SK-9 or anti-importin-α antibody (FIG. 5). An excerpt: To identify the adapter protein(s) involved in transporting TFPI-2 to the nucleus, we performed co-immunoprecipitation studies using the PROFOUND co-immunoprecipitation kit and cell lysates derived from either vehicle-treated HT-1080 cells, TFPI-2-treated HT-1080 cells or HT-1080 cells overexpressing TFPI-2. Approximately 4.5×10^6 cells from each system were washed twice with PBS, and the lysates prepared in the presence of proteinase inhibitors using the mammalian protein extraction reagent provided in the kit. Complexes of importin-α and TFPI-2 were removed from the lysate by co-immunoprecipitation according to the manufacturer's instructions. In this procedure, antibodies specific for either importin-α or TFPI-2 (SK-9) were covalently linked at room temperature for 16 hours to an amine-reactive gel in coupling buffer (8 mM sodium phosphate/2 mM potassium phosphate/10 mM KCl/140 mM NaCl [pH 7.4]). Cell lysates from the above preparations were added to the antibody-coupled columns and incubated at 4° C. for 18 hours with gentle end-over-end mixing. The columns were then washed several times with coupling buffer containing 0.5 M NaCl to remove non-specifically bound proteins, and finally eluted with the elution buffer provided in the kit. […]

Assay [2] concerns HT-1080 cells. Nature of the assay: Localization of protein in stably-transfected overexpressing HT-1080 cells, immunoblotting and immunocytochemistry. The conditions noted are these: HT-1080 cells stably transfected with cDNA (FIG. 3, FIG. 4C, 4D). The class given is cell-based, human. As for the experimental part:
HT-1080 and HEK 293 cell lines were stably transfected to overexpress either wild-type human TFPI-2 or a mutant TFPI-2 construct lacking the carboxy-terminal tail (TFPI-2^1-188), and were maintained as described (Chand et al., Blood, 2004;103:1069-1077, Du et al., Arch. Biochem. Biophys:, 2003;417:96-104). An anti-human TFPI-2 murine monoclonal antibody designated as SK-9 was prepared as described (Du et al., Arch. Biochem. Biophys., 2003;417:96-104) and coupled to Affi-Gel 10 according to the manufacturer's recommendation. Recombinant human TFPI-2 was purified from HEK 293 serum-free conditioned media by a two-step chromatography procedure involving heparin-agarose (Sprecher et al., Proc. Natl. Acad. Sci. USA., 1994;91:3353-3357) and SK-9-AffiGel 10 affinity chromatography. In the latter procedure, heparin-agarose purified TFPI-2 was dialyzed against 50 mM Tris-HCl (pH 7.5) and applied to the SK-9-AffiGel 10 column equilibrated at room temperature with this buffer. After a wash step with 50 mM Tris-HCl (pH 7.5)/0.5 M NaCl, TFPI-2 was eluted with 0.1 M glycine (pH 2.5)/0.5 M NaCl into one-tenth volume of 1 M Tris-HCl (pH 8.8) to immediately neutralize the pH 2.5 glycine. […]

For another assay, the system named is human tumor cell lines. The conditions noted are these: several tumor cell lines, exogenously offered; Kempaiah and Kisiel 2008; cited from earlier work.

B1: TFPI-2: Human tissue factor pathway inhibitor-2, a 32 kDa Kunitz-type serine proteinase inhibitor (SEQ ID NO:1), recombinant from HEK 293 (protein, listed as Homo sapiens)
chain: DAAQEPTGNNAEICLLPLDYGPCRALLLRYYYDRYTQSCRQFLYGGCEGNANNFYTWEACDDACWRIEKVPKVCRLQVSVDDQCEGSTEKYFFNLSSMTCEKFFSGGCHRNRIENRFPDEATCMGFCAPKKIPSFCYSPKDEGLCSANVTRYYFNPRYRTCDAFTYTGCGGNDNNFVSREDCKRACAKALKKKKKMPKLRFASRIRKIRKKQF
modifications: tissue factor pathway inhibitor-2
In the case of B1, the “Amount localized in the nucleus in 60 minutes at 4° C. (temperature dependence)” value in the assay on HT-1080 cells [1] (4° C. versus 37° C. (FIG. 1C)) is “roughly equivalent to that observed in five minutes at 37 °C”. Also, the “Time of maximal cytosolic and nuclear localization” value in the assay with HT-1080 cells [1] (24-72 hours incubation) is 48 h. In addition, in the assay on HT-1080 cells [1] (24-72 hours incubation, immunoblot (FIG. 1)), the “Intracellular distribution of internalized protein” value is “internalized and distributed in both the cytosolic and the nuclear fractions”. In addition, in the assay with HT-1080 cells [1] (37° C., within the first 15 minutes of offering (FIG. 1A)), the “Rate of internalization and translocation to the nucleus” value was “rapidly internalized by these cells and translocated to the nucleus within minutes of offering; also recorded: rapidly internalized by HT-1080 cells and efficiently translocated to the nucleus”. For the same molecule, the “Complex formation with importin-α (co-immunoprecipitation)” value with importin-α is “complexes of TFPI-2 and importin-α were immunoprecipitated by each antibody; also recorded: formed complexes with importin-α”. Further, the “Localization of overexpressed protein” value in the assay with HT-1080 cells [2] was “cytosolic and nuclear localization of TFPI-2”. The “Induction of caspase-mediated apoptosis” value with human tumor cell lines is “induce caspase-mediated apoptosis”.
